In paper PMC7605111:
“And” between values parts separate entries of the source, which are not always exact repeats. Equal values may be shown once.

What was measured:
[1] = biological target: class II fructose-1,6-bisphosphatase from Francisella tularensis (Francisella tularensis); assay: SEC
[2] = biological target: class II fructose-1,6-bisphosphatase from Francisella tularensis (Francisella tularensis); assay: crystal structure

## class II fructose-1,6-bisphosphatase from Francisella tularensis (enzyme)
[1]
  stoichiometry N: 2 and 4
[2]
  stoichiometry N: 4
